Reference: PMC3562429 (Developmental cell, 2013)

Target: T1, Aim3 (budding yeast, UniProt P38266 1-947)
T1 sequence (looked up): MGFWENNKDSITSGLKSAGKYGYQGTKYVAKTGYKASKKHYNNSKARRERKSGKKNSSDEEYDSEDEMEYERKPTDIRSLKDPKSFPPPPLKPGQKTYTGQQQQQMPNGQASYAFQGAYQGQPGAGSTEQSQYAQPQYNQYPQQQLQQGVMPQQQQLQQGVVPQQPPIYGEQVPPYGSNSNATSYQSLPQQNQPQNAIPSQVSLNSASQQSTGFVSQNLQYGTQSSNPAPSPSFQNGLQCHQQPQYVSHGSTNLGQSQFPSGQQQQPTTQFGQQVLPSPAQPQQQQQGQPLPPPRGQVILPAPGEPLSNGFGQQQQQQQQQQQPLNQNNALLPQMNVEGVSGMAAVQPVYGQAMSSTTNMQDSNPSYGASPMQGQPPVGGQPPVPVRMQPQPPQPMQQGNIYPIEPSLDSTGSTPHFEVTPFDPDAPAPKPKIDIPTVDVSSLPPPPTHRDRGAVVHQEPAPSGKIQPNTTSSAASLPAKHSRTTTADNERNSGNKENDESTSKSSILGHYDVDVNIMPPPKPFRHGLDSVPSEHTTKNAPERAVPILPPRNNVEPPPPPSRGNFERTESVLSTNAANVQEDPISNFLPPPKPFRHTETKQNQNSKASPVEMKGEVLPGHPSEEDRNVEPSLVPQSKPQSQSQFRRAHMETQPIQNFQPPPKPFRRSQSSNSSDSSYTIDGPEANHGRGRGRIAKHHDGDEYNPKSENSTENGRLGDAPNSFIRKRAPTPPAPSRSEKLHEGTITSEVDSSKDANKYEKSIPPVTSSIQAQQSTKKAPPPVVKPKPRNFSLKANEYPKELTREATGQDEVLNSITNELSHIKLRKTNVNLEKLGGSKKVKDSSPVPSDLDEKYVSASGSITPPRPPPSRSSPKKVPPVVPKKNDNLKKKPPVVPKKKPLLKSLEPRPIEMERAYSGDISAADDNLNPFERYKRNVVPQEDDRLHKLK
Assay: pull-down

- binding result: binds
B1: Abp1-9myc (Actin binding protein 1) (natural protein, budding yeast, UniProt P15891 1-592, looked up)
chain: MALEPIDYTTHSREIDAEYLKIVRGSDPDTTWLIISPNAKKEYEPESTGSSFHDFLQLFDETKVQYGLARVSPPGSDVEKIIIIGWCPDSAPLKTRASFAANFAAVANNLFKGYHVQVTARDEDDLDENELLMKISNAAGARYSIQTSSKQQGKASTPPVKKSFTPSKSPAPVSKKEPVKTPSPAPAAKISSRVNDNNDDDDWNEPELKERDFDQAPLKPNQSSYKPIGKIDLQKVIAEEKAKEDPRLVQKPTAAGSKIDPSSDIANLKNESKLKRDSEFNSFLGTTKPPSMTESSLKNDDDKVIKGFRNEKSPAQLWAERKAKQNSGNAETKAEAPKPEVPEDEPEGEPDVKDLKSKFEGLAASEKEEEEMENKFAPPPKKSEPTIISPKPFSKPQEPVKAEEAEQPKTDYKKIGNPLPGMHIEADNEEEPEENDDDWDDDEDEAAQPPLPSRNVASGAPVQKEEPEQEEIAPSLPSRNSIPAPKQEEAPEQAPEEEIEEEAEEAAPQLPSRSSAAPPPPPRRATPEKKPKENPWATAEYDYDAAEDNELTFVENDKIINIEFVDDDWWLGELEKDGSKGLFPSNYVSLGN
